Laboratory results taken from the supplement of paper PMC11246515.
± gives the standard deviation of the averaged measurements.

Experiment: total protein half-life in vivo (active degradation + dilution); higher = more stable protein
[1] = E. coli NCM3722 delta-clpP, growth: N-lim chemostat, doubling time 6 h
[2] = E. coli NCM3722 delta-hslV, growth: N-lim chemostat, doubling time 6 h
[3] = E. coli NCM3722 delta-lon, growth: N-lim chemostat, doubling time 6 h
[4] = E. coli NCM3722 delta-smpB, growth: N-lim chemostat, doubling time 6 h
[5] = wild type E. coli NCM3722, growth: C-lim chemostat, doubling time 3 h
[6] = wild type E. coli NCM3722, growth: N-lim chemostat, doubling time 6 h
[7] = wild type E. coli NCM3722, growth: N-lim chemostat, doubling time 12 h
[8] = wild type E. coli NCM3722, growth: P-lim chemostat, doubling time 6 h
[9] = wild type E. coli NCM3722, growth: P-lim chemostat, doubling time 12 h
[10] = E. coli NCM3722 delta-clpP delta-lon delta-hslV, growth: N-lim chemostat, doubling time 6 h
[11] = wild type E. coli NCM3722, growth: C-lim chemostat, doubling time 6 h
[12] = wild type E. coli NCM3722, growth: C-lim chemostat, doubling time 12 h

Sequence	total protein half-life in vivo [1] [h]	total protein half-life in vivo [2] [h]	total protein half-life in vivo [3] [h]	total protein half-life in vivo [4] [h]	total protein half-life in vivo [5] [h]	total protein half-life in vivo [6] [h]	total protein half-life in vivo [7] [h]	total protein half-life in vivo [8] [h]	total protein half-life in vivo [9] [h]	total protein half-life in vivo [10] [h]	total protein half-life in vivo [11] [h]	total protein half-life in vivo [12] [h]
MLLNALASLGHKGIKTLRTFGRAGLMLFNALVGKPEFRKHAPLLVRQLYNVGVLSMLIIVVSGVFIGMVLGLQGYLVLTTYSAETSLGMLVALSLLRELGPVVAALLFAGRAGSALTAEIGLMRATEQLSSMEMMAVDPLRRVISPRFWAGVISLPLLTVIFVAVGIWGGSLVGVSWKGIDSGFFWSAMQNAVDWRMDLVNCLIKSVVFAITVTWISLFNGYDAIPTSAGISRATTRTVVHSSLAVLGLDFVLTALMFGN	6.31	6.03	4.82	5.29	3.19	7.45	11.3	> 8	11.55 ± 0.11			
MLMITSFANPRVAQAFVDYMATQGVILTIQQHNQSDVWLADESQAERVRAELARFLENPADPRYLAASWQAGHTGSGLHYRRYPFFAALRERAGPVTWVMMIACVVVFIAMQILGDQEVMLWLAWPFDPTLKFEFWRYFTHALMHFSLMHILFNLLWWWYLGGAVEKRLGSGKLIVITLISALLSGYVQQKFSGPWFGGLSGVVYALMGYVWLRGERDPQSGIYLQRGLIIFALIWIVAGWFDLFGMSMANGAHIAGLAVGLAMAFVDSLNARKRK	7.254 ± 0.027			4.85			11.7	5.84	11.6 ± 1.8	5.94 ± 0.09	5.67	7.94
MLNETPALAPDGQPYRLLTLRNNAGMVVTLMDWGATLLSARIPLSDGSVREALLGCASPECYQDQAAFLGASIGRYANRIANSRYTFDGETVTLSPSQGVNQLHGGPEGFDKRRWQIVNQNDRQVLFALSSDDGDQGFPGNLGATVQYRLTDDNRISITYRATVDKPCPVNMTNHVYFNLDGEQSDVRNHKLQILADEYLPVDEGGIPHDGLKSVAGTSFDFRSAKIIASEFLADDDQRKVKGYDHAFLLQAKGDGKKVAAHVWSADEKLQLKVYTTAPALQFYSGNFLGGTPSRGTEPYADWQGLALESEFLPDSPNHPEWPQPDCFLRPGEEYSSLTEYQFIAE [P0A9C3]	4.67 ± 0.097		4.63 ± 0.11	4.275 ± 0.041	3.16 ± 0.33	4.71 ± 0.91	7.76 ± 0.98	6.38 ± 0.48		5.1 ± 0.083	6.76 ± 0.95	12.3 ± 1.5
MLNSFKLSLQYILPKLWLTRLAGWGASKRAGWLTKLVIDLFVKYYKVDMKEAQKPDTASYRTFNEFFVRPLRDEVRPIDTDPNVLVMPADGVISQLGKIEEDKILQAKGHNYSLEALLAGNYLMADLFRNGTFVTTYLSPRDYHRVHMPCNGILREMIYVPGDLFSVNHLTAQNVPNLFARNERVICLFDTEFGPMAQILVGATIVGSIETVWAGTITPPREGIIKRWTWPAGENDGSVALLKGQEMGRFKLGSTVINLFAPGKVNLVEQLESLSVTKIGQPLAVSTETFVTPDAEPAPLPAEEIEAEHDASPLVDDKKDQV [P0A8K1]	6.33 ± 0.086	5.99 ± 0.61	5.79 ± 0.1	6 ± 0.58	2.76 ± 0.4	6.81 ± 0.24		6.16 ± 0.32	13.3 ± 0.12	6.31 ± 0.2	6.32 ± 0.66	12.8 ± 0.63
